Reference: article PMC6044717 (ACS Omega, 2018)

Key:
Solubility in water = assay type: physicochemical; conditions: physiological pH and temperature
[1] = biological target: fluorescein isothiocyanate (FITC)-conjugated GRGDSP peptide; assay: fluorescence polarisation
[2] = biological target: Human recombinant integrin α5β1 (human) (UniProt P08648); assay: fluorescence polarisation

Row | Molecule | solubility in water (Solubility in water) | Kd [1] [µM] | IC50 [2] [µM] | Ki [2] [µM]
1 | O=C(N[C@@H](Cc1ccccc1)C(=O)O)OCC1c2ccccc2-c2ccccc21 [Fmoc-F] | not readily soluble |  |  | 
2 | Human recombinant integrin α5β1 (from UniProt P08648 42-1049; P05556 21-728) (complex) |  | 0.207 |  | 
3 | arginine–glycine–aspartic acid tripeptide (RGD) |  |  | 26.8 | 10.8
4 | depsipeptide R-Glc-D (arginine–glycolic acid–aspartic acid) |  |  | 1120 | 454
